Positions count from the first letter of the chain named. Names may count otherwise.
Columns and labels:
[1] = molecular target: C81R mutant PCNA protein from S. cerevisiae (S. cerevisiae) (UniProt P15873); experiment: crystal structure
native gel or EMSA = molecular target: the molecule itself; experiment: native gel or EMSA
[2] = molecular target: MutSα (Msh2-Msh6) from S. cerevisiae (S. cerevisiae, UniProt P25847 1-964; Q03834 1-1242); experiment: ELISA
crystal structure = molecular target: the molecule itself; experiment: crystal structure

Sequence of MutSα (Msh2-Msh6) from S. cerevisiae (P25847 whole entry, chain 1 of 2): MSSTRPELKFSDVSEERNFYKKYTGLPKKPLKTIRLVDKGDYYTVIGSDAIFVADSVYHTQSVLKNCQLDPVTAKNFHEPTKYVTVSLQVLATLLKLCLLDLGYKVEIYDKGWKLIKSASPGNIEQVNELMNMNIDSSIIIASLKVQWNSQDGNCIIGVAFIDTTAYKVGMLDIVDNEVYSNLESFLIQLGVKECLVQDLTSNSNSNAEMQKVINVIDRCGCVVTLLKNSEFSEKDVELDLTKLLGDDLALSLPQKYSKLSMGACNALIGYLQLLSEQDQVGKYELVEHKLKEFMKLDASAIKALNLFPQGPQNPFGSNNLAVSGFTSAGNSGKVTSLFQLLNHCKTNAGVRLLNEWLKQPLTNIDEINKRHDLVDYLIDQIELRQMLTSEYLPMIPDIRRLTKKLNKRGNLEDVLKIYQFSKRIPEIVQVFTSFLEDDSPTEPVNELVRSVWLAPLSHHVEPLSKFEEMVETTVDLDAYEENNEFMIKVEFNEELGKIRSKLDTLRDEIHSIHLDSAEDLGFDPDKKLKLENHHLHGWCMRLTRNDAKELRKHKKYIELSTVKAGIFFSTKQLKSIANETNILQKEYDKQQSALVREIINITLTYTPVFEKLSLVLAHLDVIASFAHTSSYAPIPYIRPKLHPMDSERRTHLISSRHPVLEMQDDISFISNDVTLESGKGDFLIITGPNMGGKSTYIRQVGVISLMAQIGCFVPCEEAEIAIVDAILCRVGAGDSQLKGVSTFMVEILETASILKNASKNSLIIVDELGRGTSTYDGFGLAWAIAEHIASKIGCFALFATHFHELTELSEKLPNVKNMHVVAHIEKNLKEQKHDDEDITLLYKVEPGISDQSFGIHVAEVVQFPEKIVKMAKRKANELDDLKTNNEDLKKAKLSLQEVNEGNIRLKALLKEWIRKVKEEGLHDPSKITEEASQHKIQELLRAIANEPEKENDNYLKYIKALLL
Sequence of MutSα (Msh2-Msh6) from S. cerevisiae (Q03834 whole entry, chain 2 of 2): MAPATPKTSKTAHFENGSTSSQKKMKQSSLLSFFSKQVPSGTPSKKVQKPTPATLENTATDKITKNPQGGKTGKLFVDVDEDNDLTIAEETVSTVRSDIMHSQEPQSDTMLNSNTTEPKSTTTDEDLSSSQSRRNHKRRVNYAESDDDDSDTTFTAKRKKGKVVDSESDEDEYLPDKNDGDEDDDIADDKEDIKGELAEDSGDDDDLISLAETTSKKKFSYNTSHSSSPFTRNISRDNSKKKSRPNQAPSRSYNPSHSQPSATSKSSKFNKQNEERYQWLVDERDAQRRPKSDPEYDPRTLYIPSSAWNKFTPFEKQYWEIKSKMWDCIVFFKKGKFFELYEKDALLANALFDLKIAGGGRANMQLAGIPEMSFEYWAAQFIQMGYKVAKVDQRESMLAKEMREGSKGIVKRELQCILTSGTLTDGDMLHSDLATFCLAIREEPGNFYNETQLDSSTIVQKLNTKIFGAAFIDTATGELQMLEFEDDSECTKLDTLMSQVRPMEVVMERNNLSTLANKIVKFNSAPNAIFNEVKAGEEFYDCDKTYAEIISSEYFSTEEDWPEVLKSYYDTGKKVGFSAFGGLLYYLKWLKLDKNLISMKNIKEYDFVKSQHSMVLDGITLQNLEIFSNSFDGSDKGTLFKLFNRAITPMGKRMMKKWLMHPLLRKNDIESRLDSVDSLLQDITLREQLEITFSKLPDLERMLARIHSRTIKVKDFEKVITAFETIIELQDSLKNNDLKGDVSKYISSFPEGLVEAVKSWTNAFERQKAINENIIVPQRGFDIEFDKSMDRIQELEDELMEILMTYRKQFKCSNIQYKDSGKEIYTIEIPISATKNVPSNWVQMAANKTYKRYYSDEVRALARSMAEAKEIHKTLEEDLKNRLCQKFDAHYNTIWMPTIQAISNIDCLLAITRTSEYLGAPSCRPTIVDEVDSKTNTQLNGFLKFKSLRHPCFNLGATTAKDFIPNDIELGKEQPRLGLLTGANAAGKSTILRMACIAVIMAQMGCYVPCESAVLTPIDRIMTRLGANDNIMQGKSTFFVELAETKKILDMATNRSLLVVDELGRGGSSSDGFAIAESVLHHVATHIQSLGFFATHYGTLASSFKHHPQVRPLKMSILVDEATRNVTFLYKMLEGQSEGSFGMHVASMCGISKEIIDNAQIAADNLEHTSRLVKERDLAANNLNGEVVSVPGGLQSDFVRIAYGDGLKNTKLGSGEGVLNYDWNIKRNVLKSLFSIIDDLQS

For “C81R mutant PCNA protein from S. cerevisiae (from UniProt P15873 1-258) (natural protein)”, which stoichiometry N [1] is on record?
Its stoichiometry N is 3.

B1: wild-type PCNA protein (proliferating cell nuclear antigen) from S. cerevisiae (natural protein)
chain: MLEAKFEEASLFKRIIDGFKDCVQLVNFQCKEDGIIAQAVDDSRVLLVSLEIGVEAFQEYRCDHPVTLGMDLTSLSKILRCGNNTDTLTLIADNTPDSIILLFEDTKKDRIAEYSLKLMDIDADFLKIEELQYDSTLSLPSSEFSKIVRDLSQLSDSINIMITKETIKFVADGDIGSGSVIIKPFVDMEHPETSIKLEMDQPVDLTFGAKYLLDIIKGSSLSDRVGIRLSSEAPALFQFDLKSGFLQFFLAPKFNDEE
For B1, which “stoichiometry N” value (native gel or EMSA) is on record?
The value was 3.

B2: C22Y mutant PCNA protein from S. cerevisiae (natural protein)
chain: B1 chain with C22Y
Does B2 bind [2]?
Result: binds

What about the “stoichiometry N” value (crystal structure) of the same molecule?
Its value is 3.

B3: C81R mutant PCNA protein from S. cerevisiae (natural protein)
chain: B1 chain with C81R
Does B3 bind [2]?
Result: binds

From publication PMC3845532 (Biochemistry, 2013)
